{
  "source": "patent US20110189284A1",
  "about": "“Peptide Fibres” (UNIVERSITY OF BRISTOL, priority 2009, published 2011)",
  "key": {"PC12 cells": {"tested_on": "PC12 cells", "test": "Alamar Blue cell-proliferation assay", "assay_type": "cell-based, rat", "settings": "cells on collagen; peptide 0.5-2.5 mM total; 72 hours", "method": "PC12 cells were exposed to different concentrations of hSAFAAA-W peptides (from 0.5 mM to 2.5 mM). Results are expressed as percentage of fluorescence from cells incubated with hSAFAAA-W versus no-peptide controls (100%). Mean+/−s.d. mean for n=3 experiments. […] Staurosporine was used to establish definite cell death.\nRat adrenal pheochromocytoma (PC12) cells and the subclone Neuroscreen-1 (NS-1) cells (ThermoFisher Scientific Cellomics) were used. Cells were maintained at 37° C., 5% CO2 in cell-culture medium comprising: Dulbecco's Modified Eagle Media (DMEM, Invitrogen) supplemented with 10% (v/v) horse serum (Sigma), 5% (v/v), fetal bovine serum (Sigma), 1% (v/v) penicillin/streptomycin solution (Sigma), and 2 mM L-glutamine (Invitrogen). […] The fluorescence (excitation, 560 nm; emission, 590 nm) of 100 μl samples was measured. The ratio of the fluorescence intensities to that for a no-peptide control wells was taken as a measure of cell proliferation. […] Cell morphology was followed up using Leica Microsystem Wetzlar GmbH (090-135.001) and images recorded using Canon PowerShot S70 7.1 megapixels. […]"}, "[1]": {"test": "Particle-tracking microrheology (PTM) of gel strength versus temperature", "assay_type": "physicochemical", "settings": "as a function of temperature", "method": "Gel strength was probed using particle-tracking microrheology (PTM), in order to detect any difference between the behaviour of the material at the bulk and micro scales. PTM is a non-invasive technique for measuring local viscoelasticity in complex fluids (Cicuta & Donald, 2007). PTM directly observes the motion of embedded probe particles via optical microscopy. The mean square displacement (MSD) of the particles is calculated and related to the viscoelastic modulus of the sample using a Generalised Stokes-Einstein Relation (Mason, 2000; Hasnain & Donald, 2006). […] The spatial information for individual probe particles can be used to quantify the degree of heterogeneity in the system (Houghton et al., 2008).\nExperiments were carried out using a Zeiss LSM 510 confocal microscope operated in bright-field mode with a 50× objective. […] Videos were captured in uncompressed avi format at 640×480 resolution and analysed using custom-written Matlab scripts. Viscoelastic moduli were calculated by taking Laplace Transform of the MSD and using GSER. […]\nTo confirm and quantify the gel strengths, the storage (G′) and loss (G″) moduli were recorded as a function of temperature using both microrheology (FIG. 3) and bulk oscillatory rheology, FIG. 4a. […]"}, "hSAFAAA p2": {"target": "T1, hSAFAAA p2", "T1 construct": "Second peptide of the hSAFAAA pair; also called peptide b)", "T1 peptide": "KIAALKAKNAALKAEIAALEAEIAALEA", "test": "complementary peptides mixed on ice at 1 mM each; vial inversion gel test", "method": "(§1) Complementary hSAF peptides were mixed on ice, and either allowed to assemble at this temperature for 30 minutes, or removed after 5 minutes and incubated for 25 minutes at 20° C. After these times, to test for gel formation, sample vials were inverted and incubated for a further 30 minutes without changing the temperature (FIG. 2). Through this simple test, hSAFAAA and hSAFQQQ both formed self-supporting gels. hSAFQQQ formed a gel at low temperature, which melted on warming; whereas, the hSAFAAA appeared to form a weak gel at low temperature that strengthened on warming."}, "hSAFQQQ p2": {"target": "T2, hSAFQQQ p2", "T2 construct": "Second peptide of the hSAFQQQ pair; also called peptide f)", "T2 peptide": "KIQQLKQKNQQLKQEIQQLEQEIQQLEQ", "test": "complementary peptides mixed on ice at 1 mM each; vial inversion gel test", "method": "as §1"}, "hSAFAAQ p2": {"target": "T3, hSAFAAQ p2", "T3 construct": "Second peptide of the control pair hSAFAAQ", "T3 peptide": "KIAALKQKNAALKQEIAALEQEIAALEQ", "test": "summary of microscopy of the mixed peptides"}},
  "data": [
    {"molecule": "CN[C@@H]1C[C@H]2O[C@@](C)([C@@H]1OC)n1c3ccccc3c3c4c(c5c6ccccc6n2c5c31)C(=O)NC4", "note": "[staurosporine]", "values": [
      {"measurement": "cell proliferation / death versus no-peptide controls", "setting": "PC12 cells", "result": "died"}
    ]},
    {"molecule": "KIAALKAKNAALKAEIAALEAEIAALEA [hSAFAAA p2]", "values": [
      {"measurement": "gel state by PTM", "setting": "[1]", "result": "formed a weak gel detectable by PTM"}
    ]},
    {"molecule": "KIAALKAKIAALKAEIAALEAENAALEA (First peptide of the hSAFAAA pair; many copies assemble with p2 into a staggered heterodimer coiled-coil fibril; also called peptide a))", "note": "[hSAFAAA p1]", "values": [
      {"measurement": "binding result", "setting": "hSAFAAA p2", "result": "binds"}
    ]},
    {"molecule": "KIQQLKQKIQQLKQEIQQLEQENQQLEQ (First peptide of the hSAFQQQ pair; also called peptide e))", "note": "[hSAFQQQ p1]", "values": [
      {"measurement": "binding result", "setting": "hSAFQQQ p2", "result": "binds"}
    ]},
    {"molecule": "KIAALKQKIAALKQEIAALEQENAALEQ", "note": "[hSAFAAQ p1]", "values": [
      {"measurement": "binding result", "setting": "hSAFAAQ p2", "result": "binds"}
    ]}
  ]
}
